Molecular target: BE-eRNP adenine base editor: bipartite NLS, TadA (ABE8.20-m variant), 32-amino acid glycine/serine-rich linker, S. pyogenes nCas9 (D10A, C80A), bipartite NLS, complexed with sgRNA (Escherichia coli | Streptococcus pyogenes)
Assay: not stated; oligomeric state of the purified eRNPs (protein combined with sgRNA); the method stands only in Supp Figures 1-3

stoichiometry N: 2
Substance: BE-eRNP adenine base editor: bipartite NLS, TadA (ABE8.20-m variant), 32-amino acid glycine/serine-rich linker, S. pyogenes nCas9 (D10A, C80A), bipartite NLS, complexed with sgRNA (enzyme)

Reference: paper doi:10.1101/2024.12.30.630799
